Broadly, the Km is the substrate concentration at which the rate is half of its maximum.

The subject of data set [1] is Nc1ncnc2c1ncn2[C@@H]1O[C@H](COP(=O)(O)OP(=O)(O)O)[C@@H](O)[C@H]1O. The following applies: Saccharomyces cerevisiae.
Description: Binding affinity to yeast Hsp90
Data set [2] concerns Nc1ncnc2c1ncn2[C@@H]1O[C@H](COP(=O)(O)OP(=O)(O)OP(=O)(O)O)[C@@H](O)[C@H]1O. The experiment in a line: Binding affinity to CDK2/cyclin E. The class given is protein-complex assay.
The nature of data set [3]: Binding affinity to FGFR.

In the case of “ATP-dependent molecular chaperone HSP82 (Saccharomyces cerevisiae S288c), P02829”, the Michaelis constant (Km) in data set [1] was determined as 150 µM.

On to “Cyclin-dependent kinase 2/cyclin E (Homo sapiens) (from UniProt P24864+P24941+O96020)”, for which, in data set [2], the Michaelis-Menten constant (Km) came to 3.6 µM.

In the case of `Nc1ncnc2c1ncn2[C@@H]1O[C@H](COP(=O)(O)OP(=O)(O)OP(=O)(O)O)[C@@H](O)[C@H]1O`, the Michaelis constant (Km) in data set [3] was found to be 70 µM.

Values taken from ChEMBL document CHEMBL1268867, “ATPases as drug targets: insights from heat shock proteins 70 and 90” (J Med Chem, 2010).
